B1: α-amino-β-carboxymuconate-ε-semialdehyde decarboxylase (ACMSD) from Pseudomonas fluorescens KU-7 (enzyme)
chain: MKKPRIDMHSHFFPRISEQEAAKFDANHAPWLQVSAKGDTGSIMMGKNNFRPVYQALWDPAFRIEEMDAQGVDVQVTCATPVMFGYTWEANKAAQWAERMNDFALEFAAHNPQRIKVLAQVPLQDLDLACKEASRAVAAGHLGIQIGNHLGDKDLDDATLEAFLTHCANEDIPILVHPWDMMGGQRMKKWMLPWLVAMPAETQLAILSLILSGAFERIPKSLKICFGHGGGSFAFLLGRVDNAWRHRDIVREDCPRPPSEYVDRFFVDSAVFNPGALELLVSVMGEDRVMLGSDYPFPLGEQKIGGLVLSSNLGESAKDKIISGNASKFFNINV
notes: ACMSD from Pseudomonas fluorescens KU-7, UniProt Q83V25; Zinc-dependent metalloenzyme; also called pfACMSD; wild-type ACMSD; source: stored in 25 mM HEPES pH 7.0

What was measured:
O=C(O)CC(=O)C(=O)O = tested on: T1, O=C(O)CC(=O)C(=O)O; experiment: purified protein; type: biochemical, Pseudomonas fluorescens; settings: HEPES pH 7.0, keto to enol form
T1 construct: recombinant from pET16b-ACMSD, purified; Zn-dependent homodimer with Arg239* from adjacent subunit

purified protein = substrate: O=C(O)CC(=O)C(=O)O; experiment: purified protein; settings: HEPES pH 7.0, Zn enzyme, keto to enol form
[1] = biological target: the molecule itself; experiment: crystal structure; malonate-bound wild-type ACMSD, 10 mg/ml (270 uM); 50 mM malonate in place of Tacsimate, 0.1 M sodium citrate tribasic pH 5.6, 12% (w/v) PEG 3350; 2.21 A

Molecule	Km (O=C(O)CC(=O)C(=O)O) [µM]	kcat (O=C(O)CC(=O)C(=O)O) [s⁻¹]	kcat/Km (O=C(O)CC(=O)C(=O)O) [M⁻¹ s⁻¹]	Km (purified protein) [µM]	kcat (purified protein) [s⁻¹]	kcat/Km (purified protein) [M⁻¹ s⁻¹]	binding result [1]
ACMSD (pfACMSD) (Pseudomonas fluorescens; W194A)	800 ± 80	4.18 ± 0.25	5200	–	–	–	–
ACMSD (pfACMSD) (Pseudomonas fluorescens; H228A)	570 ± 130	2.98 ± 0.35	5200	–	–	–	–
B1	–	–	–	1120 ± 140	6.51	5800	binds

Source: article PMC11650718, “α-Amino-β-carboxymuconate-ε-semialdehyde decarboxylase catalyzes enol/keto tautomerization of oxaloacetate” (The Journal of Biological Chemistry, 2024)
